Test results reported in patent US20230115257A1 (published 2023).

Tests used:
Assay in all cases: ELISA
[1] = target: SARS-CoV-2 BA.2 spike trimer variant (SARS-CoV-2 Omicron BA.2, UniProt P0DTC2 16-1213)
[2] = target: SARS-CoV-2 B.1.1.529 spike trimer variant (SARS-CoV-2 B.1.1.529 (Omicron), UniProt P0DTC2 16-1213)
[3] = target: SARS-CoV-2 Beta (B.1.351) variant prefusion stabilized spike trimer protein (UniProt P0DTC2 14-1213)

Row | Binder | EC50 [1] | EC50 [2] | EC50 [3]
1 | 4-K16-A (antibody, V domains shown) VH: QIQLVQSGPELKKPGETVKISCKASGYTFTTYGMSWVKQAPGKGLKWMGWMSTYSGVPTYADDFKGRFAFSLETSASTAYLQINNLKNEDTATYFCASGDVGYWGQGTTLTVSS VL: DIVMTQSQKFMSTSVGDRVSVTCKASQNVGTNVAWYQQKPGQSPKALIYSASYRYSGVPDRFTGSGSGTDFTLTISTVQSEDLAEYFCQQYNIYPSTFGGGTKLEIK | 3.87 nM | 0.94 nM | –
2 | 10-I12-A (antibody, V domains shown) VH: RVQLQQSGPELVRPGTSVKISCKASGYTFTDSYINWVTQRPGQGLDWIGWIFPGNDNTYYNEKFEGKATLTLDKSSSTAYMLLSSLTSEDSAVYFCARSGGLRLGFAYWGQGTLVTVSA VL: NIVLTQSPASLAVSRGQRATISCRASESVDSYGHSFIHWYQQKPGQPPKILIYLASKLESGVPARFSGSGSRTDFTLTIDPVEADDAATYYCQQNNEDPWTFGGGTKLEIK | 81.1 nM | – | –
3 | 6-L8-A (antibody, V domains shown) VH: EVQLQQSVAELVRPGASVKLSCTPSGFNIKNTYMHWMKQRPEQGLEWIGRINPANDDTKYAPKFQDKATITADTSSNTAYLQLSSLTSEDTAIYYCVYDVRWYFDVWGTGTTVTVSS VL: DVVMTQTPLSLPVSLGDQASISCRSSQGLVHSNGNTYLHWYLQKPGQSPKLLIYKVSNRFSGVPDRFSGSGSGTDFTLKISRVEAEDLGVYFCSQSTHVPPTFGAGTKLELK | 20.6 nM | 64 nM | –
4 | 8-N24-A (antibody, V domains shown) VH: QVQLQQPGAELVKPGASVKVSCKASGYTFTSYWMHWVKQRPGQGLEWIGRIHPSDSDTNYYQKFKGKATLSVDKSSSTAYMQLSSLTSEDSAVYYCAIPLYSYDNSGGYYPMDYWGQGTSVTVSS VL: DIVMTQSQKFMSTSVGDRVTITCKASQNVRTAVAWYQQKPGQSPKKLIYLASNRHTGVPDRFTGSGSGTDFTLAISNVQSEDLADYFCLQHWNYPFTFGSGTRLEIK | 3.25 nM | 4.19 nM | –
5 | 10-B11-A (antibody, V domains shown) VH: QVQLQQPGAELVKPGASVKVSCKASGYTFTSYWMHWVKQRPGQGLEWIGRIHPSDSDTNYYQKFKGKATLSVDKSSSTAYMQLSSLTSEDSAVYYCAIPLYSYDNSGGYYPMDYWGQGTSVTVSS VL: DIVMTQSQKFMSTSVGDRVTITCKASQNVRTAVAWYQQKPGQSPKKLIYLASNRHTGVPDRFTGSGSGTDFTLAISNVQSEDLADYFCLQHWNYPFTFGSGTRLEIK | 0.84 nM | 1.16 nM | –
6 | 9-P9-A (antibody, V domains shown) VH: DVKLVESGEGLVKPGGSLKLSCAASGFSFSNFGMSWVRQTPEKRLEWVAYISSGGDYIYYADTVKGRFTISRDNARNTLYLQMSSLKSEDTAIYYCTRGYFDYWGQGTTLTVSS VL: DVLMTQTPLSLPVSLGDQASISCRSSQSIVHSNGNTYLEWYLQKPGQSPKLLIYTVSNRFSGVPDRFSGSGSGTDFTLKISRVEAEDLGVYYCFQGSHVPYTFGGGTKLEMR | 0.3 nM | 0.29 nM | –
7 | 2-P2-A (antibody, V domains shown) VH: EVQLQQSGAELVRPGSSVKMSCKTSGYTFTSYGINWVKQRPGQGLEWIGYIYIGNGYTEYNEKFKGKATLTSDTSSSTAYMQLSSLTSEDSAIYFCARGGVDYWGQGTTLTVSS VL: DVLMTQTPLSLPVSLGDQASISCRSSQSIVHSNGNTYLEWYLQKPGQSPKLLIYKVSNRFSGVPDRFSGSGSGTDFTLKISRVEAEDLGVYYCFQGSHVPYTFGGGTKLEIK | 0.5 nM | 0.58 nM | –
8 | 9-M12-A (antibody, V domains shown) VH: EVQLVESGGDLVKPGGSLKLSCTASGFTFSSYGMSWVRQTPDKRLEWVTTISSGGGYTYVPDSVKGRFTISRDNAKNTLYLHMSSLKSEDTAMYFCARPLIPTMVEAFDYWGQGTSLTVSS VL: SIVMTQTPKFLPVSAGDRVTMTCKASQSVGNNVAWYQQKPGQSPKLLIYYASNRYTGVPDRFTGSGSGADFTFTISSVQVEDLAVYFCQQHYSSPFTFGTGTKLEIK | – | – | 0.47 nM
9 | 2-B20-A (antibody, V domains shown) VH: QIQLVQSGPELKKPGETVKISCKASGYTFTTYGMSWVKQAPGKGLKWMGWINTFSGLPTYADDFNGRFAFSLETSASTAYLQINNLKDEDTATYFCARVKVHDYDGDFYGMDYWGQGTSVTVSS VL: DVVLTQTPLSLPVNIGDQASISCKSTKSLLNSDGFTYLDWYLQKPGQSPQLLIYLVSNRFSGVPDRFSGSGSGTDFTLKISRVEAEDLGVYYCFQSNYLPLTFGAGTKLELK | – | – | 0.23 nM
10 | 5-H22-A (antibody, V domains shown) VH: QVQLQQSGAELVRPGASVTLSCKASGYTFTDYEMHWMKQTPVHGLEWIGAIDLETGGTVYNQKFKGKAILTADKSSNTAYMALRSLTSEDSAVYYCTREFPHYYGSRYGFPYWGQGTLVTVSA VL: QIVLTQSPAIMSASPGEKVTITCSASSSVSYMHWLQQKPGTSPKLWIYSTSNLASGVPARFSGSGSGTSYSLTISRMEAEDAATYYCQQRSSYPYTFGGGTKLEIK | – | 1.26 nM | –
11 | 3-E13-A (antibody, V domains shown) VH: EVQLQQSGPELVKPGASVKMSCKASGYTFTDYNIHWVKQSHGKSLEWIGYINPNNGGTDYNQKFQGKATLTVNKSSSTAYMELRSLTSEDFAVYYCARGGFYGNYGAYYGMDFWGQGTSVTVSS VL: DIQMTQSPASLSASVGETVTITCRTSENIYSHLAWYQQTQGKSPQLLVYNAKTLAEGVPSRFSGSGSGTHFSLKINSLQPEDFGSYYCQHHYGIPPEFGGGTKLEIK | 0.35 nM | 0.35 nM | –
12 | 2-J9-A (antibody, V domains shown) VH: EVQLQQSGPELVKPGASVKMSCKASGYTFTDYNIHWVKQSHGKSLEWIGYINPNNGGTDYNQKFQGKATLTVNKSSSTAYMELRSLTSEDSAVYYCARGGFYGNYGAYYGMDFWGQGTSVTVSS VL: DIQMTQSPASLSASVGETVTITCRTSENIYSHLAWYQQTQGKSPQLLVYNTKTLAEGVPSRFTGSGSGTQFSLKINSLQPEDFGSYYCQHHYGIPPEFGGGTKLEIK | 0.31 nM | 0.4 nM | –
13 | 6-C19-A-WT (antibody, V domains shown) VH: EVQLQQSGPELVKPGASVKMSCKASGYTFTDYNIHWVKQSHGKSLEWIGYINPNNGGTDYNQKFQGKATLTVDKSSSTAYMELRSLTSEDSAVYYCARGGFYGNYGSYYGMDFWGQGTSVTVSS VL: DIQMTQSPASLSASVGETVTITCRTSENIYSHLAWYQQTQGKSPHLLVYNAKTLAEGVPSRFSGSGSGTQFSLKINSLQPEDFGSYFCQHHYGIPPEFGGGTKLEIK | 0.36 nM | 0.36 nM | –
14 | 4-A22-A (antibody, V domains shown) VH: EVQLQQSGPELVKPGASVKMSCKASGYTFTSYVMHWVKQKPGQGLEWIGYINPYNDGTEYNEKFKGKATLTSDKSSSTAYMELSSLTSEDSAVYYCAREAYRYFDVWGTGTTVTVSS VL: DIQMTQSPASLSVSVGETVTITCRASENIYSNLAWYQQKQGKSPQLLVYAATNLAEGVPSRFSGSGSGTQYSLKINSLQSEDFGSYYCQHFWGTPWTFGGGTKLEIK | – | – | 5.97 nM
15 | 9-L13-A (antibody, V domains shown) VH: QVQLKESGPGLVAPSQSLSITCTVSGFSLTSYAISWVRQPPGKGLEWLGLIWTGGGTNYNSALKSRLSISKDNSKSQIFLKMNSLQTDDTARYYCARGPPLIYYGDLYYFDYWGQGTTLTVSS VL: DIQMTQSPSSLSASLGGKVTITCKASQDINKYIAWYQHKPGKGPRLLIHYTSTLQPGIPSRFSGSGSGRDYSFSISNLEPEDIATYYCLQYDNLWTFGGGTKLEIK | 12 nM | 10.9 nM | –
16 | 2-O15-A (antibody, V domains shown) VH: QVQLQQSGAELVRPGASVKLSCKASGYTFTDCEMHWVKQTPVHGLEWIGVIDPETGDTAYNQKFKGKATLTADKSSSTAYMELRSLTSEDSAVYYCTRRRDYGNPYWYFDVWGAGTTVTVSS VL: EIVLTQSPALMAASPGEKVTITCSVSSSISSSNLHWYQQKSGTSPKPWIYGTSNLASGVPVRFSGSGSGTSYSLTISSMEAEDAATYYCQQWTSYPYTFGSGTKLEIK | – | – | 0.59 nM
17 | 4-C3-A (antibody, V domains shown) VH: EVQLQQSGPELVKPGASVKISCKASGYSFTGYYMHWVKQSHGNILDWIGYIYPYNGVSSYNQKFKGKATLTVDKSSSTAYMELRSLTSEASAVYYCARAYGSSYDYYYGLDYWGQGTSVTVSS VL: DIVLTQSPASLAVSLGQRATISCKASQSVDYDGAGYMNWYQQKPGQPPKLLISSASNLQSGIPARFSGSGSGTDFTLNIHPVEEEDAATYYCQQSNDDPYTFGGGTKLEIK | 3.07 nM | 0.71 nM | –
18 | 10-J24-A (antibody, V domains shown) VH: EVQLVESGGGLVKPGGSLKLSCAASGFTFSSYAMSWVRQNPAKRLEWVATISGGGGFTYYPDSVKGRFTISRDNAKNTLYLQMNSLRSEDTAMYYCARDEDGKHDYFDYWGQGTTLTVSS VL: DIVMTQSHKFMSTSVGDRVSITCKASQDVGTAVAWYQQKPGQSPKLLIYWASTRHTGVPDRFTGSGSGTDFTLTISNVQSEDLADYFCQQYASYPLTFGGGTKLVIK | – | – | 1.47 nM
19 | 9-J11-A (antibody, V domains shown) VH: QVQLQQSGAELVKPGASVKMSCMASGYTFTTYPIEWMKQIHGKSLEWIGNFHPYNDDSKYNEKFKGKATLSVEKSSSTVYLELSRSTSDDSAVYYCARGSYGPYWYFDVWGTGTTVTVSS VL: DIQMTQSPASLSASVGETVTITCRASGDIHNYLVWYQQKQGKSPQLLVYNAKALADGVPSRFSGSGSGTQYSLKINSLQPDDFGSYYCQHFWSIPYTFGGGTKLEIK | 8.21 nM | 0.39 nM | –
20 | 6-C19-A (antibody, V domains shown) VH: QIQLVQSGPELKKPGETVKISCKASGNTFTTAGMQWVQKMPGKGFKWIGWINTHSGEPKYAEDFKGRFAFSLETSASTAYLQISNLKNEDTATYFCARYGDYYYFDCWGQGTTLTVSS VL: DIQMTQSPASLSASVGETVTITCRASGNIHNYLAWYQQKQGKSPQLLVYNAKTLADGVPSRFSGSGSGTQYSLKINSLQPEDFGSFYCQHFWTTPWSFGGGTKLEIK | – | – | 1.53 nM
